Results taken from US7179468 (CORNELL RESEARCH FOUNDATION, dated 2007).

Tests used:
[1] = molecular target: HIV-1 envelope glycoprotein (gp120/gp41 complex) of isolate 2076c1.3 (HIV-1); assay: cell-based or functional assay
[2] = molecular target: HIV-1 envelope glycoprotein (gp120/gp41 complex) of isolate 92US657 (HIV-1); assay: cell-based or functional assay
[3] = molecular target: HIV-1 envelope glycoprotein (gp120/gp41 complex) of isolate HC4 (HIV-1); assay: cell-based or functional assay
[4] = molecular target: HIV-1 envelope glycoprotein (gp120/gp41 complex) of isolate JRFL (HIV-1); assay: cell-based or functional assay
[5] = molecular target: HIV-1 envelope glycoprotein (gp120/gp41 complex) of isolate NL4-3 (HIV-1); assay: cell-based or functional assay
[6] = molecular target: HIV-1 envelope glycoprotein (gp120/gp41 complex) of isolate DH123 (HIV-1); assay: cell-based or functional assay
[7] = molecular target: HIV-1 envelope glycoprotein (gp120/gp41 complex) of isolate SF162 (HIV-1) (UniProt P19549); assay: cell-based or functional assay
[8] = molecular target: Q652L peptide (C52 peptide with leucine for glutamine at position 652) (HIV-1 (HXB2 strain)); assay: sedimentation equilibrium, 4 C; self-association
[9] = molecular target: the molecule itself; assay: sedimentation equilibrium; self-association

Molecule: human antibody 2F5 isolated from an HIV-1-infected donor
- EC50 IgG (ug/ml), neutralization of HIV-1 (p24 production in PHA-activated PBMC) [1]: 38.1 µg/mL
- EC50 IgG (ug/ml), neutralization of HIV-1 (p24 production in PHA-activated PBMC) [2]: 57.8 µg/mL
- EC50 IgG (ug/ml), neutralization of HIV-1 (p24 production in PHA-activated PBMC) [3]: 34.2 µg/mL
- EC50 IgG (ug/ml), neutralization of HIV-1 (p24 production in PHA-activated PBMC) [4]: 4.37 µg/mL
- EC50 IgG (ug/ml), neutralization of HIV-1 (p24 production in PHA-activated PBMC) [5]: 15.2 µg/mL

Molecule: CD4-IgG2 (Fc fusion)
- EC50 IgG (ug/ml), neutralization of HIV-1 (p24 production in PHA-activated PBMC) [1]: > 10 µg/mL
- EC50 IgG (ug/ml), neutralization of HIV-1 (p24 production in PHA-activated PBMC) [2]: > 10 µg/mL
- EC50 IgG (ug/ml), neutralization of HIV-1 (p24 production in PHA-activated PBMC) [6]: 5.18 µg/mL
- EC50 IgG (ug/ml), neutralization of HIV-1 (p24 production in PHA-activated PBMC) [3]: > 10 µg/mL
- EC50 IgG (ug/ml), neutralization of HIV-1 (p24 production in PHA-activated PBMC) [4]: 0.51 µg/mL
- EC50 IgG (ug/ml), neutralization of HIV-1 (p24 production in PHA-activated PBMC) [5]: 0.21 µg/mL
- EC50 IgG (ug/ml), neutralization of HIV-1 (p24 production in PHA-activated PBMC) [7]: < 0.062 µg/mL

Molecule: Q652L peptide (C52 peptide with leucine for glutamine at position 652)
- molecular weight from sedimentation equilibrium (expected for a trimer 19,419) [8]: 17700

B1: N656L peptide (C52 peptide with leucine for asparagine at position 656) (peptide)
chain: NHTTWLEWDREINNYTSLIHSLIEESQNQQEKLEQELLELDKWASLWNWFNI
notes: No unique oligomeric state; The apparent molecular weight depends on the concentration
- binding result [9]: binds
